Experiments:
[1] = system: AncSZ; test: phosphorylation enrichment, bacterial display (enrichment ratio); higher = better substrate or ligand; peptides without Tyr show the background
[2] = molecular target: EPHB1 (UniProt P54762); test: as above
[3] = molecular target: EPHB2 (UniProt P29323); test: as above
[4] = molecular target: FGFR1 (UniProt P11362); test: as above
[5] = molecular target: FGFR3 (UniProt P22607); test: as above
[6] = system: Fer (mouse); test: as above
[7] = molecular target: Fes (UniProt P07332); test: as above
Chain of Fes (P07332 whole entry, looked up): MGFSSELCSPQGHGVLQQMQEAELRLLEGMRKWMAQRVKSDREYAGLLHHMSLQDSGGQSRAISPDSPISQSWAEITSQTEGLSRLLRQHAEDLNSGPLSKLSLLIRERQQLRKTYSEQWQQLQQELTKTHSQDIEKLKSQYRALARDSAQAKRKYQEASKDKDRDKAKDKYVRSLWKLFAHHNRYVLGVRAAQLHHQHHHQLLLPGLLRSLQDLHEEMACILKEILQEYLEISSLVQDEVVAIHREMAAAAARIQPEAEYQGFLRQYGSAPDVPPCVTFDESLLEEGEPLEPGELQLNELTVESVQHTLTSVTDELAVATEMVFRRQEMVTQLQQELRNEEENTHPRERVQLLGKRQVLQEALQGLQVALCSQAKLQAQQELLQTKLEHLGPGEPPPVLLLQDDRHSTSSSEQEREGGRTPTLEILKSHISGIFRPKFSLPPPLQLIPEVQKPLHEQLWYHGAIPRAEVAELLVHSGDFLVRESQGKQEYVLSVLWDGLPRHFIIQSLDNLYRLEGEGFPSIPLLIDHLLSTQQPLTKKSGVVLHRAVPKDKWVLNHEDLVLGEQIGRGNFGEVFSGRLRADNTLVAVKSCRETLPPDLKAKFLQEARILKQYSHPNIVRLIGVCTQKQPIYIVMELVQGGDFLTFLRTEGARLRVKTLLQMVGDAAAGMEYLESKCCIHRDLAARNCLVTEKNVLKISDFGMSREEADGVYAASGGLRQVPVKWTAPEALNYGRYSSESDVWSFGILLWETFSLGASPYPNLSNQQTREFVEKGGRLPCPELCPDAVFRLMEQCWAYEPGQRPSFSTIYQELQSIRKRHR

[8] = molecular target: Fyn (UniProt P06241); test: as above
[9] = molecular target: Hck (UniProt P08631); test: as above
Chain of Hck (P08631 whole entry, looked up): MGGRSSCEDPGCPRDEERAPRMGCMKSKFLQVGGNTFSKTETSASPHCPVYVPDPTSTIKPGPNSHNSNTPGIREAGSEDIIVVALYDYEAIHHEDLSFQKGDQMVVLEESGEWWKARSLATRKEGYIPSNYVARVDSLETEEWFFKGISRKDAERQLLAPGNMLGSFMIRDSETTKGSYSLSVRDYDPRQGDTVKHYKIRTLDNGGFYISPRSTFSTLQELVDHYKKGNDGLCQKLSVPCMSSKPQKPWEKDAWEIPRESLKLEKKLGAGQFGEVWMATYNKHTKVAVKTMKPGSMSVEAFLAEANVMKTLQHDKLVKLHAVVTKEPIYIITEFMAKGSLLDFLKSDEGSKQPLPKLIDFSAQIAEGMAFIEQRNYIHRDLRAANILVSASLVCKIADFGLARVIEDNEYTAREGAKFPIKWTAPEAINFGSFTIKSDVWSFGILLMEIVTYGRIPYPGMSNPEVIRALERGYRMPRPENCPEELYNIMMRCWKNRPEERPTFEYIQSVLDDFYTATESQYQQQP

[10] = molecular target: Jak2 (UniProt O60674); test: as above
Chain of Jak2 (O60674 whole entry, looked up): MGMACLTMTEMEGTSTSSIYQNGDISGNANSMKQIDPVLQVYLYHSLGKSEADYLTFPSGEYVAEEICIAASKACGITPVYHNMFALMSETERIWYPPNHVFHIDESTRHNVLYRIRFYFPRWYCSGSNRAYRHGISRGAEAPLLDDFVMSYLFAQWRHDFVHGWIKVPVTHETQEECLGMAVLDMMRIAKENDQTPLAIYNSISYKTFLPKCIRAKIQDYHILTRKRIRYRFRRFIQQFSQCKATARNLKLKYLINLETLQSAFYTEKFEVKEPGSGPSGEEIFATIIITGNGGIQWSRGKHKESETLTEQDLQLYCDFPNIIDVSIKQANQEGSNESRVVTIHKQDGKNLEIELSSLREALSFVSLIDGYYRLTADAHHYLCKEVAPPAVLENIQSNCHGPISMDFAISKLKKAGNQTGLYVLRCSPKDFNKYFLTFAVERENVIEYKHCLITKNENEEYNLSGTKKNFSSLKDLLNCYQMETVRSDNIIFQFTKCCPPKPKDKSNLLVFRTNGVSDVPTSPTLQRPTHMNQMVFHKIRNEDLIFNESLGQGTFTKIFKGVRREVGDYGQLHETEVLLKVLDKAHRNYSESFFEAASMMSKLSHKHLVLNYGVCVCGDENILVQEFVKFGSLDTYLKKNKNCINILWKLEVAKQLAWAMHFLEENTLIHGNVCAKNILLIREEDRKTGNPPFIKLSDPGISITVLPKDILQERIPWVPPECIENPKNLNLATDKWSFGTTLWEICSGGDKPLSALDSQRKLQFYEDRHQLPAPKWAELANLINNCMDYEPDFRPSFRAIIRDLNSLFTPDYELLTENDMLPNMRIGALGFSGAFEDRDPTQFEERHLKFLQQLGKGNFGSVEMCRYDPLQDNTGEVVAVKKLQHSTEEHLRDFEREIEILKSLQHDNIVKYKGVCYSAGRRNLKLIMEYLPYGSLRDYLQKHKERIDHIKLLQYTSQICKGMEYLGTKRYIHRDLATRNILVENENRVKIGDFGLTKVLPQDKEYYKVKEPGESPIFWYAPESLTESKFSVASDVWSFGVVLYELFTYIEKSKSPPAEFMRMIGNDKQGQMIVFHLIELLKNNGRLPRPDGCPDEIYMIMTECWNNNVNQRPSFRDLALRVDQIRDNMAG

[11] = molecular target: MERTK (UniProt Q12866); test: as above
[12] = system: c-Abl (mouse); test: as above
[13] = system: c-Src; test: as above
[14] = molecular target: Grb2 SH2 (UniProt P62993); test: SH2 binding enrichment of the phosphorylated peptide, bacterial display (enrichment ratio); higher = better substrate or ligand; peptides without Tyr show the background
Chain of Grb2 SH2 (P62993 whole entry, looked up): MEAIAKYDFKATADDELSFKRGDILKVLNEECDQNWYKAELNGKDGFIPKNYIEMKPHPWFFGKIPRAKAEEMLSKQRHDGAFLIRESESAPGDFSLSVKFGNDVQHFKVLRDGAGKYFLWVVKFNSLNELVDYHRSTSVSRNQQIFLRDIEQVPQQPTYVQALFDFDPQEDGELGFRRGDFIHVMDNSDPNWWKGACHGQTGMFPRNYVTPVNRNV

[15] = molecular target: SHP2-C SH2; test: as above
[16] = molecular target: c-Src SH2; test: as above
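Throughout, for SH2 binding enrichment of the phosphorylated peptide, bacterial display: peptide library displayed on the E. coli surface as eCPX fusions, selected cells deep-sequenced, score is each peptide's frequency after selection divided by its frequency in the input.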
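Throughout, for phosphorylation enrichment, bacterial display: 11-residue human phosphosite peptides and single-mutation variants displayed on the E. coli surface, counted by deep sequencing, each peptide's frequency after selection divided by its frequency in the unselected input library; frequency after pTyr selection over input frequency; kinase dosed for 20-30% of maximal phosphorylation in three min.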

Chain of FGFR1 (P11362 whole entry, looked up): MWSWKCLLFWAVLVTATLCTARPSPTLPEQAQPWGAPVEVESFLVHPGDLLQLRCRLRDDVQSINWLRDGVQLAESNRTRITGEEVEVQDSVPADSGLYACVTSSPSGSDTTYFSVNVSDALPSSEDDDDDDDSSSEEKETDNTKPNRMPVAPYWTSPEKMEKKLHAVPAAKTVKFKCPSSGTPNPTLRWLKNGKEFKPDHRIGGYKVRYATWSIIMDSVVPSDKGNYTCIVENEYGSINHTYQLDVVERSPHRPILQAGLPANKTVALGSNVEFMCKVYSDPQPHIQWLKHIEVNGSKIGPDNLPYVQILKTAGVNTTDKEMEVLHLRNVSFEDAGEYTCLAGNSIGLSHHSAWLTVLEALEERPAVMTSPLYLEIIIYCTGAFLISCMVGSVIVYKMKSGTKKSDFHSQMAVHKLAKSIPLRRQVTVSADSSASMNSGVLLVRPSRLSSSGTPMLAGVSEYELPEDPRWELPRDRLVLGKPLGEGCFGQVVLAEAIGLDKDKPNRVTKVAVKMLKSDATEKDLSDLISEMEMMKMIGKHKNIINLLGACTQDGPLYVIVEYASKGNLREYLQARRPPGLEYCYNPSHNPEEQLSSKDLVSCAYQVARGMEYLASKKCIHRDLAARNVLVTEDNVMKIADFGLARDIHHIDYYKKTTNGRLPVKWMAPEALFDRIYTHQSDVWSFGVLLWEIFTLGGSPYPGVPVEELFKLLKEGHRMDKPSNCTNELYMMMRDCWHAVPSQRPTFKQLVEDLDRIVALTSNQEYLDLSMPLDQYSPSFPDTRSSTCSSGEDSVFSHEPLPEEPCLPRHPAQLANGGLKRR
Chain of EPHB2 (P29323 whole entry, looked up): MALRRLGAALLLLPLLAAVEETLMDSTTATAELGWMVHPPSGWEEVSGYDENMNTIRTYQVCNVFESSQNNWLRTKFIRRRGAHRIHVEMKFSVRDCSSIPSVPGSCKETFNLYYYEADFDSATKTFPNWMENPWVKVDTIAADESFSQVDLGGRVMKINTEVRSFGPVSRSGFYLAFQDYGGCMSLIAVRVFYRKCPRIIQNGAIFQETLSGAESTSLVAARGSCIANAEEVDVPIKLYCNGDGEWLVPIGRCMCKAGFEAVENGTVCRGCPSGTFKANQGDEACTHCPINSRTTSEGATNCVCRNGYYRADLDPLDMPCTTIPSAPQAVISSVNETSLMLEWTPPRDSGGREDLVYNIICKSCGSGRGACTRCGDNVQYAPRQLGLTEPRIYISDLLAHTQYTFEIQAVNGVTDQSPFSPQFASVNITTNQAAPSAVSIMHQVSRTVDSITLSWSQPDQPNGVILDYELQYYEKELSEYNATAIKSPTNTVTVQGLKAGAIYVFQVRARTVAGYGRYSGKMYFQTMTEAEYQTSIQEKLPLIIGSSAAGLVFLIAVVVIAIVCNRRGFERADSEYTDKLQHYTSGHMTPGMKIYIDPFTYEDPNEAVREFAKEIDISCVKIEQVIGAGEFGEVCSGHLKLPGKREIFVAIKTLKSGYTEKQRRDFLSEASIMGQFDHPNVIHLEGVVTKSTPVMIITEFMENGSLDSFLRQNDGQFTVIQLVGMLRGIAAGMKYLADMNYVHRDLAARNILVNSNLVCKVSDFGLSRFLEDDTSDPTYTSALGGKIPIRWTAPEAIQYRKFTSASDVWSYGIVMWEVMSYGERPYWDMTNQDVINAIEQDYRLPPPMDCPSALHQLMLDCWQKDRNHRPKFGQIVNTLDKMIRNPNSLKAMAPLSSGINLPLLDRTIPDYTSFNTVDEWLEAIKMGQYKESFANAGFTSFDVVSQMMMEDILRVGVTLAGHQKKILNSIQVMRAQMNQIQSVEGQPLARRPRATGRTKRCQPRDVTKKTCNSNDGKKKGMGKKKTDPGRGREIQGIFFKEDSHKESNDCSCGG

Sequence	phosphorylation enrichment [1]	phosphorylation enrichment [2]	phosphorylation enrichment [3]	phosphorylation enrichment [4]	phosphorylation enrichment [5]	phosphorylation enrichment [6]	phosphorylation enrichment [7]	phosphorylation enrichment [8]	phosphorylation enrichment [9]	phosphorylation enrichment [10]	phosphorylation enrichment [11]	phosphorylation enrichment [12]	phosphorylation enrichment [13]	SH2 binding enrichment [14]	SH2 binding enrichment [15]	SH2 binding enrichment [16]
FVSIVYNDSGE [TSC2_Y1650]	0.951	0.509	0.702	0.559	0.725	0.52	0.993	0.596	0.611	0.942	0.571	0.647	0.516	1.2	1.01	0.705
GADDSYYTARS [ZAP70_Y492]	1	0.488	0.517	0.551	0.652	0.482	1.05	0.594	0.737	1	0.43	0.938	0.742	0.816	0.447	0.556
GARGRYVMGGP [TNK1_Y277]	0.7	0.504	0.389	0.481	0.419	0.405	0.555	0.332	0.379	0.457	0.546	0.376	0.421	0.512	0.548	0.435
GAVDTYCRHNY [HLA-DRB1_Y107_A102G]	0.724	0.475	0.418	0.531	0.594	0.374	0.763	0.443	0.475	0.708	0.443	0.755	0.575	0.827	0.721	0.518
GCRSKSVGLWG [KCNQ1_Y184_Y184S]	0.51	0.38	0.488	0.429	0.382	0.365	0.62	0.344	0.423	0.539	0.389	0.477	0.436	0.875	0.899	0.531
GCRSKYVGLWR [KCNQ1_Y184_G189R]	0.638	0.411	0.325	0.382	0.591	0.42	0.519	0.401	0.36	0.395	0.394	0.409	0.365	1.18	0.744	0.802
GDAMLYYPSVS [GPR143_Y177_A173D]	0.95	0.763	0.702	5.91	4.78	1.27	0.736	0.957	2.77	3.08	4.84	1.36	2.22	0.825	0.759	0.773
GDPTEYFSTAI [IGSF22_Y501_YF]	1.54	0.634	0.645	0.7	0.936	0.433	1.08	0.525	0.498	1.15	0.439	0.745	0.502	0.788	0.583	0.522
GDPTEYYITAI [IGSF22_Y501_S503I]	1.95	0.594	0.647	2.91	2.6	0.611	1.1	0.598	0.562	1.38	0.399	0.809	0.703	0.647	0.478	0.374
GDPTEYYSTAI [IGSF22_Y501]	1.77	0.598	0.555	2.04	1.74	0.738	0.873	0.599	0.809	0.954	0.497	0.636	0.87	0.959	0.734	0.619
GDSVQYNRTTD [MLPH_Y454_P451S]	0.612	0.486	0.38	0.487	0.498	0.457	0.999	0.469	0.498	0.728	0.419	0.548	0.422	0.718	0.704	0.481
GEDEPYAEPYA [APBA1_Y183_S184A]	1.59	0.685	0.694	0.608	0.799	0.525	1.53	0.609	0.544	1.33	0.636	0.915	0.639	1.1	0.885	0.821
GEEIKYMLWLL [OTC_Y55_S60L]	1	0.722	0.554	0.752	0.975	1.88	1.55	0.5	0.663	0.912	1.58	0.77	0.544	1.16	1.01	0.716
GEFHVYRHLRR [PRKRIP1_Y82]	1.3	0.43	0.465	0.57	0.581	0.4	0.863	0.484	0.57	0.896	0.494	0.601	0.518	0.601	0.358	0.501
GEIQEYGAPSD [ABCC1_Y1508]	1.07	0.493	0.544	0.523	0.662	0.481	1.05	0.506	0.505	0.891	0.476	0.757	0.438	0.745	0.648	0.507
GFCSWYRGWAP [TIMP3_Y195_YF]	1.27	0.763	0.597	0.514	0.813	0.593	1.27	0.472	0.497	1.2	0.498	0.912	0.773	0.953	0.968	0.609

From the supplement of paper PMC10065799, “High-throughput profiling of sequence recognition by tyrosine kinases and SH2 domains using bacterial peptide display” (eLife, 2023)
